Data taken from patent US20250090695A1, “IMMUNOSTIMULANT-CYTOTOXIC CONJUGATE COMPOSITION AND METHODS FOR CANCER TREATMENT” (The Research Foundation for the State University of New York, priority 2022, published 2025).
Where two headings read alike, the source gives them in different places.

What was measured:
RM1-PGLS tumors = assay type: in vivo, murine subjects
Method: FIG. 11A-11C show a visual schematic of RM1-PGLS tumor insertion in mice followed by T-cell population analysis (FIG. 11A), and tumor efficacy study analysis for in vivo tumor treatment with experimental ^177Lu-RIMS-1 compound compared with control compounds: ^177Lu-PSMA-617, unlabeled Lu-RIMS, and saline (FIG. 11B) measuring tumor volume (left), and percent survival (right).
Murine subjects were treated with RIMS compounds and tumor volume (FIG. 11B, left), subject viability measured as percent survival (FIG. 11B, right), subject weight (FIG. 11C), were described and analyzed as shown in FIGS. 11A-11C. Median overall survivability (OS) in murine subjects treated with RIMS compounds and control therapies.

[1] = Biodistribution in a xenograft model of prostate cancer with PC-3 PiP (PSMA(+)) and PC-3 flu (PSMA(−)) tumors; assay type: in vivo, Male NCr nude mice; conditions: male, mouse, total radioactivity, PC-3 PiP/PC-3 flu xenograft, NCr nude mice
Method: Biodistribution analyses of ^177Lu-RIMS-1 and ^177Lu-PSMA-617 were carried out in a xenograft model of prostate cancer with a PC-3 PiP tumor (PSMA(+)) on the left shoulder of a murine subject, and a PC-3 flu tumor (PSMA(−)) on the right should of a murine subject. Murine subjects examined were Male NCr nude mice.

[2] = tested on: CD8+ and CD4+ T-cell populations; experiment: T-cell population analysis in spleen and tumor of RM1-PGLS bearing mice; assay type: in vivo; set-up: unit not given here; conditions: RM1-PGLS bearing C57BL/6J mice
Method: FIG. 12A-12B show graphical representations of T-cell population analysis measuring cell viability in the spleen (FIG. 12A). and in the tumor (FIG. 12B) in vivo for subjects having RM1-PGLS tumors with either an experimental ^177Lu-RIMS compound, or a control compound selected from: ^177Lu-PSMA-617, unlabeled Lu-RIMS, or a control vehicle.
^177Lu-RIMS-1 and control compounds were evaluated for immune cell recruitment.

T-cells (CD3) = experiment: Immuno-PET ROI analysis of 89Zr-DFO-anti-CD3 after therapy (tumor infiltrating T-cells); assay type: in vivo, murine subjects
Method: FIG. 13A-13C describes a method and results for T-cell detection using immuno-positron emission tomography (PET).
FIG. 14A-14D show graphical representations of tumor infiltrating T-cell analysis after administration of a therapeutic compound or control. Infiltration was measured using immuno-positron emission tomography (PET).

[3] = OLINDA dosimetry to adult male from mouse biodistribution
[4] = PSMA(+) PC-3 PiP tumor, read-out: Biodistribution PSMA (+) (PC3-PIP) tumor (% ID/g ± SD)
[5] = PSMA(-) PC-3 flu tumor, read-out: Biodistribution PSMA (−) (PC3-Flu) tumor (% ID/g ± SD)
[6] = blood, read-out: Biodistribution Blood (% ID/g ± SD)
[7] = bone, read-out: Biodistribution Bone (% ID/g ± SD)
[8] = heart, read-out: Biodistribution Heart (% ID/g ± SD)
[9] = kidney, read-out: Biodistribution Kidney (% ID/g ± SD)
[10] = liver, read-out: Biodistribution Liver (% ID/g ± SD)
[11] = small intestine, read-out: Biodistribution Sm Int (% ID/g ± SD)
[12] = spleen, read-out: Biodistribution Spleen (% ID/g ± SD)

Structure (SMILES): CCCCc1nc2c(N)nc3ccccc3c2n1Cc1ccc(CNC(=O)OCc2ccc(NC(=O)[C@H](C)NC(=O)[C@@H](NC(=O)CCCCC(=O)N[C@@H](CCCCNC(=O)CN3CCN(CC(=O)O)CCN(CC(=O)O)CCN(CC(=O)O)CC3)C(=O)NC[C@H]3CC[C@H](C(=O)N[C@@H](Cc4ccc5ccccc5c4)C(=O)NCCCC[C@H](NC(=O)N[C@@H](CCC(=O)O)C(=O)O)C(=O)O)CC3)C(C)C)cc2)cc1 [^177Lu-RIMS-1, metal not drawn]
- Relative body weight (RM1-PGLS tumors; mouse, in vivo): decrease in relative body weight
- Median OS (RM1-PGLS tumors; overall survival post treatment, RM1-PGLS tumors, P < 0.0007 printed for 177Lu-RIMS-1): 30 days
- tissue uptake at 2 h [1, 4]: 7.16 ± 2.68 %ID/g
- tissue uptake at 24 h [1, 4]: 6.04 ± 1.76 %ID/g
- tissue uptake at 72 h [1, 4]: 2.65 ± 1.03 %ID/g
- tissue uptake at 2 h [1, 5]: 1.65 ± 0.24 %ID/g
- tissue uptake at 24 h [1, 5]: 0.16 ± 0.01 %ID/g
- tissue uptake at 2 h [1, 6]: 3.36 ± 0.2 %ID/g
- tissue uptake at 24 h [1, 6]: 0.06 ± 0.01 %ID/g
- tissue uptake at 72 h [1, 6]: 0.01 ± 0.01 %ID/g
- tissue uptake at 2 h [1, 7]: 0.72 ± 0.15 %ID/g
- tissue uptake at 24 h [1, 7]: 0.17 ± 0.06 %ID/g
- tissue uptake at 72 h [1, 7]: 0.1 ± 0.04 %ID/g
- tissue uptake at 2 h [1, 8]: 1.28 ± 0.08 %ID/g
- tissue uptake at 24 h [1, 8]: 0.16 ± 0.02 %ID/g
- tissue uptake at 72 h [1, 8]: 0.06 ± 0.01 %ID/g
- tissue uptake at 2 h [1, 9]: 24.5 ± 2.58 %ID/g
- tissue uptake at 24 h [1, 9]: 6.24 ± 1.03 %ID/g
- tissue uptake at 72 h [1, 9]: 2.1 ± 0.31 %ID/g
- tissue uptake at 2 h [1, 10]: 7.95 ± 0.35 %ID/g
- tissue uptake at 24 h [1, 10]: 3.19 ± 0.38 %ID/g
- tissue uptake at 72 h [1, 10]: 1.36 ± 0.29 %ID/g
- tissue uptake at 2 h ([1]; muscle, read-out: Biodistribution Muscle (% ID/g ± SD)): 0.36 ± 0.06 %ID/g
- tissue uptake at 2 h [1, 11]: 1.15 ± 0.1 %ID/g
- tissue uptake at 24 h [1, 11]: 0.54 ± 0.8 %ID/g
- tissue uptake at 2 h [1, 12]: 2.32 ± 0.052 %ID/g
- tissue uptake at 24 h [1, 12]: 0.77 ± 0.31 %ID/g
- tissue uptake at 72 h [1, 12]: 0.29 ± 0.11 %ID/g
- Total CD4+ T-cell population ([2]; Spleen): 14.51 ± 2.24
- Total CD8+ T-cell population ([2]; Spleen): 7.70 ± 0.84
- Total CD4+ T-cell population ([2]; Tumor): 2.07 ± 1.54
- Total CD8+ T-cell population ([2]; Tumor): 4.72 ± 2.70
- % Injected Dose/cc of 89Zr-DFO-anti-CD3 (ROI) (T-cells (CD3); Blood, 8 days after administration of therapy): 7.95 ± 0.75 % Injected Dose/cc
- % Injected Dose/cc of 89Zr-DFO-anti-CD3 (ROI) (T-cells (CD3); Blood, 9 days after administration of therapy): 7.075 ± 0.94 % Injected Dose/cc
- % Injected Dose/cc of 89Zr-DFO-anti-CD3 (ROI) (T-cells (CD3); Blood, 10 days after administration of therapy): 4.98 ± 0.61 % Injected Dose/cc
- % Injected Dose/cc of 89Zr-DFO-anti-CD3 (ROI) (T-cells (CD3); Blood, 11 days after administration of therapy): 4.33 ± 1.40 % Injected Dose/cc
- % Injected Dose/cc of 89Zr-DFO-anti-CD3 (ROI) (T-cells (CD3); Blood, 12 days after administration of therapy): 3.07 ± 1.23 % Injected Dose/cc
- % Injected Dose/cc of 89Zr-DFO-anti-CD3 (ROI) (T-cells (CD3); Spleen, 8 days after administration of therapy): 15.65 ± 0.96 % Injected Dose/cc
- % Injected Dose/cc of 89Zr-DFO-anti-CD3 (ROI) (T-cells (CD3); Spleen, 9 days after administration of therapy): 19.39 ± 3.46 % Injected Dose/cc
- % Injected Dose/cc of 89Zr-DFO-anti-CD3 (ROI) (T-cells (CD3); Spleen, 10 days after administration of therapy): 18.45 ± 1.30 % Injected Dose/cc
- % Injected Dose/cc of 89Zr-DFO-anti-CD3 (ROI) (T-cells (CD3); Spleen, 11 days after administration of therapy): 19.06 ± 2.34 % Injected Dose/cc
- % Injected Dose/cc of 89Zr-DFO-anti-CD3 (ROI) (T-cells (CD3); Spleen, 12 days after administration of therapy): 18.54 ± 1.04 % Injected Dose/cc
- % Injected Dose/cc of 89Zr-DFO-anti-CD3 (ROI) (T-cells (CD3); Tumor, 8 days after administration of therapy): 15.85 ± 3.12 % Injected Dose/cc
- % Injected Dose/cc of 89Zr-DFO-anti-CD3 (ROI) (T-cells (CD3); Tumor, 9 days after administration of therapy): 14.94 ± 2.65 % Injected Dose/cc
- % Injected Dose/cc of 89Zr-DFO-anti-CD3 (ROI) (T-cells (CD3); Tumor, 10 days after administration of therapy): 13.74 ± 3.74 % Injected Dose/cc
- % Injected Dose/cc of 89Zr-DFO-anti-CD3 (ROI) (T-cells (CD3); Tumor, 11 days after administration of therapy): 12.20 ± 4.43 % Injected Dose/cc
- % Injected Dose/cc of 89Zr-DFO-anti-CD3 (ROI) (T-cells (CD3); Tumor, 12 days after administration of therapy): 11.83 ± 5.22 % Injected Dose/cc
- OLINDA dosimetry to Adult Male, Adrenals ([3]; Target Organ Adrenals): 8.71 μSv/MBq
- OLINDA dosimetry to Adult Male, Brain ([3]; Target Organ Brain): 0.02 μSv/MBq
